In US20120178697A9:

Target: PDZ domain (residues 247 through 341) of mouse Dvl-1 (mouse) (UniProt P51141)
Assay: method not stated; called 'experimental data', at 25° C

Kd: 10 µM
Substance: Dapper peptide
